One may read the stoichiometry N as a count of units in the complex or per binding partner.

Stoichiometry N data for one substance are collected here from publication PMC3406085.

The target in this assay is Merkel cell polyomavirus (MCPyV) major capsid protein VP1, amino acids 38-320, unassembled pentamer (Merkel cell polyomavirus (w162)). The assay is described as follows: crystal structure; unassembled VP1 pentamers, native and soaked with DSL, 3SLN or GD1a; hanging drop at 20°C, 100 mM sodium cacodylate pH 6.5, 6% PEG 3,350, 300 mM magnesium chloride; four VP1 pentamers in the asymmetric unit.

Take “Merkel cell polyomavirus (MCPyV) major capsid protein VP1, amino acids 38-320, unassembled pentamer (domain or fragment)”: the stoichiometry N is 5.
